# B1: PD-L1 antibody (antibody, human IgG4 S228P, kappa, F234A L235A, V domains shown)
# VH: QVQLVQSGAEVKKPGASVKVSCKASGYTFTSYWMHWVRQAPGQGLEWMGRIGPNSGFTSYNEKFKNRVTMTRDTSTSTVYMELSSLRSEDTAVYYCARGGSSYDYFDYWGQGTTVTVSS
# VL: DIVLTQSPASLAVSPGQRATITCRASESVSIHGTHLMHWYQQKPGQPPKLLIYAASNLESGVPARFSGSGSGTDFTLTINPVEAEDTANYYCQQSFEDPLTFGQGTKLEIKR
# notes: Human IgG4 with S228P, F234A, L235A and the C-terminal K mutated to A; also called Ab; PD-L1 antibody IgG4 (AA) (S228P)
# Experiments:
# human TGF-β1 [1] = biological target: T1, human TGF-β1 (human, UniProt P01137 279-390); test: cell-based or functional assay
# [2] = biological target: human PD-L1 on CHO/PD-L1 cells (CS187108, Promega) (human, UniProt Q9NZQ7 19-290); test: cell-based or functional assay
# human TGF-β1 [3] = biological target: T1, human TGF-β1; test: ELISA, plate coated with human TGF-β1, anti-human Fc-HRP, OD 450 nm
# Description: a. […] Washing 3 times with 250 μl of 1×PBST, 250 μl of 5% milk PBS was added for blocking at 37° C. for 2 hours. c. […] Washing 3 times with 250 μl 1×PBST. e. 100 μl of Anti-human Fc antibody-HRP (1:4000) was added to each well and incubated for 40 minutes at 37° C. f. 100 μl of TMB was added into each well, incubated for 10 minutes at room temperature, and the reaction was stopped by adding 100 μl of 1 M H₂SO₄. g. The absorbance at 450 nm was measured on a microplate reader, and the data was analyzed by Graphpad Prism 5.
# T1 sequence (P01137 279-390 limits assumed): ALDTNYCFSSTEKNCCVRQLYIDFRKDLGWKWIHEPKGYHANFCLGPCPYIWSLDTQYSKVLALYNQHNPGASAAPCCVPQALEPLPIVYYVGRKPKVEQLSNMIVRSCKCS
# Chain of human PD-L1 on CHO/PD-L1 cells (CS187108, Promega) (Q9NZQ7 19-290): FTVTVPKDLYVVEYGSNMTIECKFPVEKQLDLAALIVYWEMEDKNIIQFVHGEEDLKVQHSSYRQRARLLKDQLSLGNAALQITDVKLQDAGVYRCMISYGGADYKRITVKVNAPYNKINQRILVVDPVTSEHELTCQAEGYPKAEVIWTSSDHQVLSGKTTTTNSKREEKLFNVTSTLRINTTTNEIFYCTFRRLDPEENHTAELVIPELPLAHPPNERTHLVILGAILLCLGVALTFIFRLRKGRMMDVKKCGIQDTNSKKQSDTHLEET
binder,measurement,setting,value
B1,"TGFβ-induced pSMAD3 reporter activity (luciferase, HepG2 cells), IC50",human TGF-β1 [1],> 500 nM
same,"EC50 (read off the curve), luminescence of the PD-1/PD-L1 blockade reporter assay",[2],~0.3 nM
same,binding result,human TGF-β1 [3],no binding (tested: 1e6 pM (Log(pM) 6))

# Source: patent US20220017601A1 (JIANGSU HENGRUI MEDICINE, published 2022)
